Substitutions are numbered along the chain they refer to. Numbers in names are those of the source.
B1: variant CD80 IgV-Fc (inert) H18L/A26N/D46E/V68M/A71G/D90G (Fc fusion)
chain: VIHVTKEVKEVATLSCGLNVSVEELNQTRIYWQKEKKMVLTMMSGEMNIWPEYKNRTIFDITNNLSIMILGLRPSDEGTYECVVLKYEKGAFKREHLAEVTLSVKAD
notes: not shown: inert human IgG1 Fc
B2: variant CD80 IgV-Fc (inert) H18Y/E35D/M47V/V68M/A71G (Fc fusion)
chain: B1 chain with L18Y, N26A, E35D, E46D, M47V, G90D
notes: Fc fusions are dimeric by the general description; not shown: inert human IgG1 Fc
B3: variant CD80 IgV-Fc (inert) H18V/A26Q/E35D/M47V/V68L/A71G/D90G (Fc fusion)
chain: B1 chain with L18V, N26Q, E35D, E46D, M47V, M68L
notes: as for B1
B4: variant CD80 IgV-Fc (inert) H18Y/A26P/E35D/M47Y/V68I/A71G/D90G (Fc fusion)
chain: B1 chain with L18Y, N26P, E35D, E46D, M47Y, M68I
notes: as for B1
B5: variant CD80 IgV-Fc (inert) H18V/A26G/E35D/M47V/V68M/A71G/D90G (Fc fusion)
chain: B1 chain with L18V, N26G, E35D, E46D, M47V
notes: as for B1
B6: variant CD80 IgV-Fc (inert) H18Y/E35D/M47V/V68L/A71G/D90G (Fc fusion)
chain: B1 chain with L18Y, N26A, E35D, E46D, M47V, M68L
notes: as for B1
B7: variant CD80 IgV-Fc (inert) H18L/E35D/M47V/V68M/A71G/D90G (Fc fusion)
chain: B1 chain with N26A, E35D, E46D, M47V
notes: as for B1
B8: variant CD80 IgV-Fc (inert) H18V/A26K/E35D/M47L/V68M/A71G (Fc fusion)
chain: B1 chain with L18V, N26K, E35D, E46D, M47L, G90D
notes: as for B1
B9: variant CD80 IgV-Fc (inert) H18Y/A26P/E35D/M47I/V68M/A71G (Fc fusion)
chain: B1 chain with L18Y, N26P, E35D, E46D, M47I, G90D
notes: as for B1
B10: variant CD80 IgV-Fc (inert) H18V/A26P/E35D/M47L/V68M/A71G (Fc fusion)
chain: B1 chain with L18V, N26P, E35D, E46D, M47L, G90D
notes: as for B1
B11: variant CD80 IgV-Fc (inert) H18T/A26N/E35D/M47L/V68M/A71G (Fc fusion)
chain: B1 chain with L18T, E35D, E46D, M47L, G90D
notes: as for B1
B12: variant CD80 IgV-Fc (inert) H18V/A26D/E35D/M47V/V68M/A71G/D90G (Fc fusion)
chain: B1 chain with L18V, N26D, E35D, E46D, M47V
notes: as for B1
B13: variant CD80 IgV-Fc H18Y/E35D/M38I/M47L/V68M/L85M (Fc fusion, not shown: small tags and cut ends; a dimerising Fc or GST)
chain: B1 chain with L18Y, N26A, E35D, M38I, E46D, M47L, G71A, L85M, G90D
B14: E35D/M47I/T62S/L85Q/E88D CD80 IgV-Fc (Fc fusion, not shown: a dimerising Fc or GST)
chain: VIHVTKEVKEVATLSCGHNVSVEELAQTRIYWQKDKKMVLTMMSGDINIWPEYKNRTIFDISNNLSIVILALRPSDEGTYECVVQKYDKDAFKREHLAEVTLSVKAD
B15: variant CD80 IgV-Fc E35D/D46V/M47I/A71G/F92V (Fc fusion, not shown: a dimerising Fc or GST)
chain: B14 chain with D46V, S62T, A71G, Q85L, D88E, F92V
B16: wild-type CD80 ECD-Fc (R&D Systems) (Fc fusion)
chain: VIHVTKEVKEVATLSCGHNVSVEELAQTRIYWQKEKKMVLTMMSGDMNIWPEYKNRTIFDITNNLSIVILALRPSDEGTYECVVLKYEKDAFKREHLAEVTLSVKADFPTPSISDFEIPTSNIRRIICSTSGGFPEPHLSWLENGEELNAINTTVSQDPETELYAVSSKLDFNMTTNHSFMCLIKYGHLRVNQTFNWNTTKQEHFPDN
notes: This is a commercial protein; also called WT CD80 ECD-Fc (R&D); unmodified CD80-ECD-Fc fusion molecule; not shown: Bought protein (R&D Systems)
B17: A26E/Q27R/E35D/M47L/N48Y/L85Q CD80 IgV-Fc (Fc fusion, not shown: a dimerising Fc or GST)
chain: B14 chain with A26E, Q27R, I47L, N48Y, S62T, D88E
B18: WT CD80 ECD-Fc (Fc fusion, not shown: a dimerising Fc or GST)
chain: B16 chain
notes: The label 'H22.6' is not explained; also called WT CD80 ECD-Fc H22.6

Biological target: T1, human CTLA-4 (human, UniProt P16410 36-223)
T1 construct: whole, on cells; CHO cells stably expressing huCTLA4; also called huCTLA4
Assay: flow cytometry MFI relative to WT CD80 IgV-Fc, CHO/huCTLA-4 cells, 33.3 nM
T1 sequence (P16410 36-223): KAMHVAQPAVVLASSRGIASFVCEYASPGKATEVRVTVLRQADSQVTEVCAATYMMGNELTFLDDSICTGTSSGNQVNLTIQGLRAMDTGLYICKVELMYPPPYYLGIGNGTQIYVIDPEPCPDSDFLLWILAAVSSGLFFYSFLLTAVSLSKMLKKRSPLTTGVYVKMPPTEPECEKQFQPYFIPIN

| Binder | Fold change to WT CD80 [fold] |
| --- | --- |
| B1 | 12.3 |
| B2 | 17.1 |
| B3 | 12.8 |
| B4 | 6 |
| B5 | 18.4 |
| B6 | 11.9 |
| B7 | 14.7 |
| B8 | 16.6 |
| B9 | 8.8 |
| B10 | 11.7 |
| B11 | 15.1 |
| B12 | 16 |

Biological target: T1, human CTLA-4
Assay: flow cytometry, CHO cells stably expressing huCTLA-4, 33.3 nM Fc fusion, PE anti-human Fc

| Binder | MFI at 33.3 nM [MFI] |
| --- | --- |
| B1 | 17000 |
| B2 | 23600 |
| B3 | 17700 |
| B4 | 8280 |
| B5 | 25400 |
| B6 | 16500 |
| B7 | 20300 |
| B8 | 22900 |
| B9 | 12200 |
| B10 | 16200 |
| B11 | 20900 |
| B12 | 22100 |

Biological target: T2, human PD-L1 (huPD-L1), full-length, stably expressed on CHO cells (human, UniProt Q9NZQ7 19-290)
T2 construct: whole, on cells
T2 sequence (Q9NZQ7 19-290): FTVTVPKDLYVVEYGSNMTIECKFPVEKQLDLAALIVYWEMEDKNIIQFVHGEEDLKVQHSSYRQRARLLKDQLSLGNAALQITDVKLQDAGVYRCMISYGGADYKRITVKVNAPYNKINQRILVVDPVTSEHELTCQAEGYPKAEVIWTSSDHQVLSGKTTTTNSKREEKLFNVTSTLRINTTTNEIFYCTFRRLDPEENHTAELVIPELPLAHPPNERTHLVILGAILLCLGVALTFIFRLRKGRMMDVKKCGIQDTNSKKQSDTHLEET
Assay: flow cytometry; MFI on PD-L1 CHO cells over MFI on Jurkat cells (CD28)

| Binder | Ratio of PDL1:CD28 [ratio] |
| --- | --- |
| B13 | 215 |

Biological target: T3, human PD-L1 (human, UniProt Q9NZQ7 19-290)
T3 construct: whole, on cells; CHO cells stably expressing huPD-L1; also called huPD-L1
Assay: flow cytometry, MFI on CHO/huPD-L1 cells divided by MFI on Jurkat cells (CD28), 33.3 nM
T3 sequence (Q9NZQ7 19-290): as above

| Binder | Ratio of PDL1:CD28 [ratio] |
| --- | --- |
| B1 | 9.4 |
| B2 | 20.1 |
| B3 | 10.7 |
| B4 | 15 |
| B5 | 8.1 |
| B6 | 18.8 |
| B7 | 10.2 |
| B8 | 18.5 |
| B9 | 10.6 |
| B10 | 21.4 |
| B11 | 50.1 |
| B12 | 10.8 |

Biological target: T4, human CD28 (human, UniProt P10747 19-220)
T4 construct: whole, on cells; Jurkat/IL2 reporter cells, which endogenously express CD28
Assay: flow cytometry, Jurkat/IL2 reporter cells (endogenous CD28), 33.3 nM Fc fusion, PE anti-human Fc

| Binder | MFI at 33.3 nM [MFI] |
| --- | --- |
| B1 | 7250 |
| B2 | 3230 |
| B3 | 3130 |
| B4 | 1820 |
| B5 | 8190 |
| B6 | 2550 |
| B7 | 6350 |
| B8 | 3640 |
| B9 | 5120 |
| B10 | 2450 |
| B11 | 1370 |
| B12 | 6250 |

Biological target: T5, human CTLA-4 (human, UniProt P16410 36-223)
T5 construct: whole, on cells; also called huCTLA4
Assay: flow cytometry, CHO cells stably expressing huCTLA4, 33.3 nM, PE anti-human Fc
T5 sequence (P16410 36-223): as the sequence (P16410 36-223) above

| Binder | MFI at 33.3 nM [MFI] |
| --- | --- |
| B14 | 8910 |

Biological target: T6, human CD28, endogenously expressed on Jurkat/IL2 reporter cells (human, UniProt P10747 19-220)
T6 construct: This is the endogenous CD28 of Jurkat cells
Assay: flow cytometry, Jurkat/IL2 reporter cells (endogenous CD28), 33.3 nM Fc fusion, PE anti-human Fc

| Binder | MFI at 33.3 nM [MFI] |
| --- | --- |
| B15 | 7540 |
| B16 | 7630 |

Biological target: T7, human PD-L1 (human, UniProt Q9NZQ7 19-290)
T7 construct: whole, on cells; also called huPD-L1
Assay: flow cytometry, CHO cells stably expressing huPD-L1, 33.3 nM, PE anti-human Fc
T7 sequence (Q9NZQ7 19-290): as the sequence (Q9NZQ7 19-290) above

| Binder | MFI at 33.3 nM [MFI] |
| --- | --- |
| B14 | 8420 |

Biological target: T2, human PD-L1 (huPD-L1), full-length, …
Assay: flow cytometry, CHO cells expressing huPD-L1

| Binder | MFI at 33.3 nM [MFI] |
| --- | --- |
| B13 | 3590 |

Biological target: T8, human CD28 (human, UniProt P10747 19-220)
T8 construct: whole, on cells; Endogenous CD28 of Jurkat/IL2 reporter cells
Assay: flow cytometry, Jurkat/IL2 reporter cells (endogenous CD28), 33.3 nM, PE anti-human Fc

| Binder | MFI at 33.3 nM [MFI] |
| --- | --- |
| B17 | 78 |
| B18 | 30 |

Biological target: T3, human PD-L1
Assay: flow cytometry MFI relative to WT CD80 IgV-Fc, CHO/huPD-L1 cells, 33.3 nM

| Binder | Fold change to WT CD80 [fold] |
| --- | --- |
| B1 | 412 |
| B2 | 393 |
| B3 | 204 |
| B4 | 165 |
| B5 | 401 |
| B6 | 290 |
| B7 | 392 |
| B8 | 408 |
| B9 | 330 |
| B10 | 318 |
| B11 | 415 |
| B12 | 409 |

Biological target: T4, human CD28
Assay: flow cytometry MFI relative to WT CD80 IgV-Fc, Jurkat cells (CD28), 33.3 nM

| Binder | Fold change to WT CD80 [fold] |
| --- | --- |
| B1 | 71.1 |
| B2 | 31.6 |
| B3 | 30.6 |
| B4 | 17.8 |
| B5 | 80.3 |
| B6 | 25 |
| B7 | 62.2 |
| B8 | 35.7 |
| B9 | 50.2 |
| B10 | 24 |
| B11 | 13.4 |
| B12 | 61.3 |

Biological target: T3, human PD-L1
Assay: flow cytometry, CHO cells stably expressing huPD-L1, 33.3 nM Fc fusion, PE anti-human Fc

| Binder | MFI at 33.3 nM [MFI] |
| --- | --- |
| B1 | 68000 |
| B2 | 64900 |
| B3 | 33600 |
| B4 | 27300 |
| B5 | 66200 |
| B6 | 47900 |
| B7 | 64800 |
| B8 | 67300 |
| B9 | 54500 |
| B10 | 52400 |
| B11 | 68500 |
| B12 | 67500 |

Biological target: T2, human PD-L1 (huPD-L1), full-length, …
Assay: flow cytometry, CHO cells expressing huPD-L1; MFI against WT CD80 of the table

| Binder | Fold change to WT CD80 [fold] |
| --- | --- |
| B13 | 69.7 |

From patent publication US20210130436A1 (published 2021)
